Laboratory results from PMC5558127, “Plant Glyoxylate/Succinic Semialdehyde Reductases: Comparative Biochemical Properties, Function during Chilling Stress, and Subcellular Localization” (Frontiers in Plant Science, 2017).

What was measured:
Assay in all cases: NADPH oxidation, absorbance microplate reader
MdGLYR1 = MdGLYR1 (Malus domestica, UniProt A0A1C8M582); type: biochemical; conditions: 50 μM glyoxylate, 50 μM NADPH, NADP+ varied 0-0.5 mM
MdGLYR2 (MdGLYR2Δ54) = target: T1, MdGLYR2 (MdGLYR2Δ54) (Malus domestica, UniProt A0A1C8M593); type: biochemical; conditions: 50 μM glyoxylate, 50 μM NADPH, NADP+ varied 0-0.5 mM
T1 construct: N-terminal targeting peptide removed (Δ54)

AtGLYR2 (AtGLYR2Δ58) = target: T2, AtGLYR2 (AtGLYR2Δ58) (Arabidopsis thaliana, UniProt F4I907); type: biochemical; conditions: 50 μM NADPH fixed; pH optimum of the enzyme, MES/HEPES/TABS 50 mM each; room temperature
T2 construct: gene GLYR2
T2 sequence (F4I907 59-358): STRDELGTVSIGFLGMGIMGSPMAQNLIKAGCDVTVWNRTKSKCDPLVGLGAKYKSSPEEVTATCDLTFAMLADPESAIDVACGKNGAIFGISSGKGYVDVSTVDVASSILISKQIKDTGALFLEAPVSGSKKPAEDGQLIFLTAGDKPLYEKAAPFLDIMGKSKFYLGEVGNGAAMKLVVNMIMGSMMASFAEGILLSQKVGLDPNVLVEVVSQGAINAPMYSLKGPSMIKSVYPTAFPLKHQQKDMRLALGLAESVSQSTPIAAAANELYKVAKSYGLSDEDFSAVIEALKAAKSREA
Text: NADPH oxidation, absorbance microplate reader on AtGLYR2 (AtGLYR2Δ58)

AtGLYR1 = target: T3, AtGLYR1 (Arabidopsis thaliana, UniProt Q9LSV0); type: biochemical; conditions: 50 μM NADPH fixed; pH optimum of the enzyme, MES/HEPES/TABS 50 mM each; room temperature
T3 construct: gene GLYR1
T3 sequence (Q9LSV0 1-289): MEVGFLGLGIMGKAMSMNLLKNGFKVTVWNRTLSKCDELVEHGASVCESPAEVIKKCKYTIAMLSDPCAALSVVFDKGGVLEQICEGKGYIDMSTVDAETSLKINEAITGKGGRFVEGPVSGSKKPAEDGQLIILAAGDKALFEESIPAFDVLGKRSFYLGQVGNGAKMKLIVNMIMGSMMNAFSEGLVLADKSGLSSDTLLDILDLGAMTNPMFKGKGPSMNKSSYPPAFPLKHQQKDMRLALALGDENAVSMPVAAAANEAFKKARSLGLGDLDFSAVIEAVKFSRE
Text: NADPH oxidation, absorbance microplate reader on AtGLYR1

[1] = substrate: NC(=O)C1=CN([C@@H]2O[C@H](COP(=O)(O)OP(=O)(O)OC[C@H]3O[C@@H](n4cnc5c(N)ncnc54)[C@H](OP(=O)(O)O)[C@@H]3O)[C@@H](O)[C@H]2O)C=CC1; type: biochemical, Malus domestica; conditions: 50 μM glyoxylate fixed; pH optimum of the enzyme, MES/HEPES/TABS 50 mM each; room temperature; varied: cofactor
Text: (§1) NADPH oxidation, absorbance microplate reader on MdGLYR1

[2] = substrate: O=CC(=O)O; type: biochemical, Malus domestica; conditions: 50 μM NADPH fixed; pH optimum of the enzyme, MES/HEPES/TABS 50 mM each; room temperature
Text: as §1

[3] = substrate: O=CCCC(=O)O; type: biochemical, Malus domestica; conditions: 50 μM NADPH fixed; pH optimum of the enzyme, MES/HEPES/TABS 50 mM each; room temperature
Text: as §1

[4] = substrate: NC(=O)C1=CN([C@@H]2O[C@H](COP(=O)(O)OP(=O)(O)OC[C@H]3O[C@@H](n4cnc5c(N)ncnc54)[C@H](OP(=O)(O)O)[C@@H]3O)[C@@H](O)[C@H]2O)C=CC1; type: biochemical, Malus domestica; conditions: 50 μM glyoxylate fixed; pH optimum of the enzyme, MES/HEPES/TABS 50 mM each; room temperature; varied: cofactor; remark: listed apart in the source
Text: (§2) NADPH oxidation, absorbance microplate reader on MdGLYR2 (MdGLYR2Δ54)

[5] = substrate: O=CC(=O)O; type: biochemical, Malus domestica; conditions: 50 μM NADPH fixed; pH optimum of the enzyme, MES/HEPES/TABS 50 mM each; room temperature; remark: listed apart in the source
Text: as §2

[6] = substrate: O=CCCC(=O)O; type: biochemical, Malus domestica; conditions: 50 μM NADPH fixed; pH optimum of the enzyme, MES/HEPES/TABS 50 mM each; room temperature; remark: listed apart in the source
Text: as §2

For `NC(=O)c1ccc[n+]([C@@H]2O[C@H](COP(=O)(O)OP(=O)(O)OC[C@H]3O[C@@H](n4cnc5c(N)ncnc54)[C@H](OP(=O)(O)O)[C@@H]3O)[C@@H](O)[C@H]2O)c1` [NADP+], the “% inhibition at NADP+/NADPH ratio of 5” value (MdGLYR1) was ~ 50% and the “% inhibition at NADP+/NADPH ratio of 5” value (MdGLYR2 (MdGLYR2Δ54)) was ~ 50%.

In the case of `O=CC(=O)O` [glyoxylate], the Km (AtGLYR2 (AtGLYR2Δ58)) is reported as 19.3 ± 4 µM and the Km (AtGLYR1) is reported as 23.2 ± 3.2 µM.

B1: MdGLYR1 (Malus domestica) (protein)
chain: MEVGFLGLGIMGKAMSMNLLRHGFKVTVWNRTLSKSHELVEHGASVAETPAEVVRKCKYTIAMLSDPSAALSVVFGKDGILEQICAGKSYVDMSTVDADTSSKINEAIKERGGYFLEAPVSGSKKPAEDGQLVILAAGEKALYEEVIPAFNVMGKKSFYLGQVGNGAKMKLVVNMIMGSMMNAFSEGLVLAGRSGLEPSVLLDVLDLGGIANPMFRLKGPTMIQGSHSPAFPLKHQQKDMRLALALGDETATSMPVAAAANEAFKKARSMGLGDLDFSAVYETVKTLEEPSRNSQLR
Work on B1 yielded a Km [1] of 3.3 ± 0.5 µM, a Vmax [1] of 39.4 µmol/min/mg and a kcat [1] of 22.3 ± 3.4 s⁻¹. The kcat/Km [1] was 6.8e+06 ± 278000 M⁻¹ s⁻¹, the Km [2] was 14.1 ± 2.1 µM and the Vmax [2] was 54.7 µmol/min/mg. It also gave a kcat [2] of 30.9 ± 3.8 s⁻¹, a kcat/Km [2] of 2.23e+06 ± 153000 M⁻¹ s⁻¹ and a Km [3] of 1133 ± 273 µM. It also gave a Vmax [3] of 8.1 µmol/min/mg, a kcat [3] of 4.6 ± 1.6 s⁻¹ and a kcat/Km [3] of 5100 ± 2300 M⁻¹ s⁻¹.

B2: MdGLYR2 (MdGLYR2Δ54) (Malus domestica) (protein)
chain: ASSKDELPARVGFLGLGIMGSPMAQNLIKSGCDVTVWNRTKSKCDPLISLGAKYKPSPEEVAASCDVTFAMLADPESAVAVALGKHGAANGMSSGKGYVDVSTVDVATSKLIGGNIKATGASFLEAPVSGSKKPAEDGQLIFLTAGDKSLYETVASLLDIMGKSRFYLGEVGNGAAMKLVVNMIMGSMMASFSEGLLLTEKIGLDPKVLVEVVSQGAISAPMYSMKGPSMIQSVYPTAFPLKHQQKDMRLALGLAESVSQSTPIAAAANELYKVAKSHGLSDEDFSAVIEALKPKLKH
notes: N-terminal targeting peptide removed (Δ54)
B2 was tested, and the Km [4] was 1.8 ± 0.5 µM, the Vmax [4] was 28.2 µmol/min/mg and the kcat [4] was 15.7 ± 1.5 s⁻¹. The kcat/Km [4] was 1.01e+07 ± 2.28e+06 M⁻¹ s⁻¹, the Km [5] was 23.9 ± 1.9 µM and the Vmax [5] was 34.3 µmol/min/mg. The kcat [5] was 19.1 ± 2.1 s⁻¹, the kcat/Km [5] was 796000 ± 33000 M⁻¹ s⁻¹ and the Km [6] was 6500 ± 327 µM. For the same molecule, the Vmax [6] was 18.6 µmol/min/mg, the kcat [6] was 10.3 ± 1.9 s⁻¹ and the kcat/Km [6] was 1600 ± 200 M⁻¹ s⁻¹.
